From PMC2064615 come the findings set out here.

The target in the assay is taxol-stabilized microtubules polymerized from tubulin purified from bovine brain (bovine). As to the kind of experiment: co-sedimentation.

B1: His-tagged recombinant emerin peptide corresponding to aa 73–180 (domain or fragment)
chain: MYDLPKKEDALLYQSKGYNDDYYEESYFTTRTYGEPESAGPSRAVRQSVTSFPDADAFHHQVHDDDLLSSSEEECKDRERPMYGRDSAYQSITHYRPVSASRSSLDLS
B1 yielded a stoichiometry N (tubulin heterodimers per emerin) of 24.

B2: emerin peptide aa 1–176 (most of the nucleoplasmic domain) (domain or fragment)
chain: MDNYADLSDTELTTLLRRYNIPHGPVVGSTRRLYEKKIFEYETQRRRLSPPSSSAASSYSFSDLNSTRGDADMYDLPKKEDALLYQSKGYNDDYYEESYFTTRTYGEPESAGPSRAVRQSVTSFPDADAFHHQVHDDDLLSSSEEECKDRERPMYGRDSAYQSITHYRPVSASRSS
The molecule B2 registered a stoichiometry N (tubulin heterodimers per emerin) of 8.
